From PMC8982864 (PLoS Biology, 2022) come the findings set out here.

Common to all, as to experiment: ELISA
(An ELISA detects its analyte on a solid surface through an enzyme-linked reagent.)

Experiment [1] addresses CSPG4 domain 1 fragment D1_(401-560) with C-terminal GFP tag (UniProt Q6UVK1).
For experiment [2], the target named is truncated wild-type TcdB (residues 550-1902) (Clostridioides difficile (VPI 10463 …, UniProt P18177 550-1902)). The note with it: both partners purified.
For experiment [3], the target named is full-length Clostridioides difficile Toxin B (TcdB), C-terminal 6XHis-tag (Clostridioides difficile (VPI 10463 …, UniProt P18177 1-2366)). The note with it: both partners purified.

Turning to “truncated TcdB (550-1902) [change] (from UniProt P18177 550-1902) (domain or fragment)”, the fold reduction of binding against wild type in experiment [1] was 1 fold.

B1: CSPG4 domain 1 fragment D1_(401-560) with C-terminal GFP tag (domain or fragment, UniProt Q6UVK1 401-560, looked up)
chain: LAPEAWPAMELPEPCVPEPGLPPVFANFTQLLTISPLVVAEGGTAWLEWRHVQPTLDLMEAELRKSQVLFSVTRGARHGELELDIPGAQARKMFTLLDVVNRKARFIHDGSEDTSDQLVLEVSVTARVPMPSCLRRGQTYLLPIQVNPVNDPPHIIFPHG
notes: not shown: GFP, C-terminal, kept
As for B1, the binding result in experiment [2] is on record as “binds”.

B2: D1_(401-560) D457A, C-terminal GFP tag (domain or fragment)
chain: LAPEAWPAMELPEPCVPEPGLPPVFANFTQLLTISPLVVAEGGTAWLEWRHVQPTLALMEAELRKSQVLFSVTRGARHGELELDIPGAQARKMFTLLDVVNRKARFIHDGSEDTSDQLVLEVSVTARVPMPSCLRRGQTYLLPIQVNPVNDPPHIIFPHG
notes: as for B1
With B2, the binding result in experiment [3] is listed as “binds”.

B3: D1_(401-560) E460A, C-terminal GFP tag (domain or fragment)
chain: LAPEAWPAMELPEPCVPEPGLPPVFANFTQLLTISPLVVAEGGTAWLEWRHVQPTLDLMAAELRKSQVLFSVTRGARHGELELDIPGAQARKMFTLLDVVNRKARFIHDGSEDTSDQLVLEVSVTARVPMPSCLRRGQTYLLPIQVNPVNDPPHIIFPHG
notes: as for B1
Take B3: the binding result in experiment [3] is listed as “binds”.
